Earlier results on one substance are cited in publication PMC6828933.

For orientation: Kd means the equilibrium constant for the complex coming apart.

For this series, the target named is eNOS (Homo sapiens) (UniProt P29474).
UniProt P29474, sequence (P29474 2-1203): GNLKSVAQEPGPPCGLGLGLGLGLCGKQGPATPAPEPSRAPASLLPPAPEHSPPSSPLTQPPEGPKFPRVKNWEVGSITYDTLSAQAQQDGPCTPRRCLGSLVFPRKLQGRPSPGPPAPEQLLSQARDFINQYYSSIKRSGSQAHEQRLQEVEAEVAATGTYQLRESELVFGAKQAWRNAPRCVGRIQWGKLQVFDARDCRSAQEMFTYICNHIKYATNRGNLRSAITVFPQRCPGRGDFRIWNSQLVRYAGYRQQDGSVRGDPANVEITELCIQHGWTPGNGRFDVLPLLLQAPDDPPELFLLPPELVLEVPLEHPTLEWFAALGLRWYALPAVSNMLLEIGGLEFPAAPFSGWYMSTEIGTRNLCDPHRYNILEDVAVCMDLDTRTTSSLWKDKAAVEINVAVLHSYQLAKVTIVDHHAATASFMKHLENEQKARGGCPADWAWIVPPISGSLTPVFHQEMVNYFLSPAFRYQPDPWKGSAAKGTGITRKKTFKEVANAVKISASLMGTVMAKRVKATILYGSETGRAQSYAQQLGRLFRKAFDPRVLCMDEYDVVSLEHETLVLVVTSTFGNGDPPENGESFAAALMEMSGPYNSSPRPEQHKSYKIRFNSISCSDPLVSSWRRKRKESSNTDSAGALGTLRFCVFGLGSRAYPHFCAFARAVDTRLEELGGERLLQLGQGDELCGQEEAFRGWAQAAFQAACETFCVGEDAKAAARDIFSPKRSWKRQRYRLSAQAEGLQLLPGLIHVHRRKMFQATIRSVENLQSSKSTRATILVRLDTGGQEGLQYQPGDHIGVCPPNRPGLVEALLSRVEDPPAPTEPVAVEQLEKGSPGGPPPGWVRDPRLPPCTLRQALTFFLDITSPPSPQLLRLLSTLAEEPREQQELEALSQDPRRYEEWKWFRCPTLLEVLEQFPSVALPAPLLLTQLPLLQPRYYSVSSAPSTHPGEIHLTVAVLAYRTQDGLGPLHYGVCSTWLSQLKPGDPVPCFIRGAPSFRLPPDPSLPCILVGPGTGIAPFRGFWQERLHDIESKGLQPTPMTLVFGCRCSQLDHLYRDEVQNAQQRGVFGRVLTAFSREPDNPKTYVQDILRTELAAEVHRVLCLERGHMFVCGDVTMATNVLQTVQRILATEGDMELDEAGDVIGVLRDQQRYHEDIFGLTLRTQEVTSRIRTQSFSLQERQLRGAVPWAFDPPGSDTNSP

For Caveolin-1 90-99 (from UniProt Q03135), the Kd is 42 nM.
